Measured values as given in patent publication US20100015650.

Target: T1, BRB1 tyrosine kinase substrate peptide
T1 chain: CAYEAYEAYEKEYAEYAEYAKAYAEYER

B1: MET (protein)
chain: KKRKQIKDLGSELVRYDARVHTPHLDRLVSARSVSPTTEMVSNESVDYRATFPEDQFPNSSQNGSCRQVQYPLTDMSPILTSGDSDISSPLLQNTVHIDLSALNPELVQAVQHVVIGPSSLIVHFNEVIGRGHFGCVYHGTLLDNDGKKIHCAVKSLNRITDIGEVSQFLTEGIIMKDFSHPNVLSLLGICLRSEGSPLVVLPYMKHGDLRNFIRNETHNPTVKDLIGFGLQVAKGMKYLASKKFVHRDLAARNCMLDEKFTVKVADFGLARDMYDKEYYSVHNKTGAKLPVKWMALESLQTQKFTTKSDVWSFGVLLWELMTRGAPPYPDVNTFDITVYLLQGRRLLQPEYCPDPLYEVMLKCWHPKAEMRPSFSELVSRISAIFSTFIGEHYVHVNATYVNVKCVAPYPSLLSSEDNADDEVDTRPASFWETS
B1 was tested, and the Signal to Noise ratio with BRB1 Peptide (TR-FRET kinase assay; kinase 0.5 nM) was 24.2.

B2: MUSK (protein)
chain: CCRRRKQWKNKKRESAAVTLTTLPSELLLDRLHPNPMYQRMPLLLNPKLLSLEYPRNNIEYVRDIGEGAFGRVFQARAPGLLPYEPFTMVAVKMLKEEASADMQADFQREAALMAEFDNPNIVKLLGVCAVGKPMCLLFEYMAYGDLNEFLRSMSPHTVCSLSHSDLSMRAQVSSPGPPPLSCAEQLCIARQVAAGMAYLSERKFVHRDLATRNCLVGENMVVKIADFGLSRNIYSADYYKANENDAIPIRWMPPESIFYNRYTTESDVWAYGVVLWEIFSYGLQPYYGMAHEEVIYYVRDGNILSCPENCPVELYNLMRLCWSKLPADRPSFTSIHRILERMCERAEGTVSV
Protein B2 has a Signal to Noise Ratio with BRB1 Peptide (TR-FRET kinase assay; kinase 1 nM) of 3.1.

B3: KIT (protein)
chain: TYKYLQKPMYEVQWKVVEEINGNNYVYIDPTQLPYDHKWEFPRNRLSFGKTLGAGAFGKVVEATAYGLIKSDAAMTVAVKMLKPSAHLTEREALMSELKVLSYLGNHMNIVNLLGACTIGGPTLVITEYCCYGDLLNFLRRKRDSFICSKQEDHAEAALYKNLLHSKESSCSDSTNEYMDMKPGVSYVVPTKADKRRSVRIGSYIERDVTPAIMEDDELALDLEDLLSFSYQVAKGMAFLASKNCIHRDLAARNILLTHGRITKICDFGLARDIKNDSNYVVKGNARLPVKWMAPESIFNCVYTFESDVWSYGIFLWELFSLGSSPYPGMPVDSKFYKMIKEGFRMLSPEHAPAEMYDIMKTCWDADPLKRPTFKQIVQLIEKQISESTNHIYSNLANCSPNRQKPVVDHSVRINSVGSTASSSQPLLVHDDV
In the case of B3, the Signal to Noise ratio with BRB1 Peptide (TR-FRET kinase assay; kinase 2 nM) is reported as 1.5.

B4: BMX (protein)
chain: MDTKSILEELLLKRSQQKKKMSPNNYKERLFVLTKTNLSYYEYDKMKRGSRKGSIEIKKIRCVEKVNLEEQTPVERQYPFQIVYKDGLLYVYASNEESRSQWLKALQKEIRGNPHLLVKYHSGFFVDGKFLCCQQSCKAAPGCTLWEAYANLHTAVNEEKHRVPTFPDRVLKIPRAVPVLKMDAPSSSTTLAQYDNESKKNYGSQPPSSSTSLAQYDSNSKKIYGSQPNFNMQYIPREDFPDWWQVRKLKSSSSSEDVASSNQKERNVNHTTSKISWEFPESSSSEEEENLDDYDWFAGNISRSQSEQLLRQKGKEGAFMVRNSSQVGMYTVSLFSKAVNDKKGTVKHYHVHTNAENKLYLAENYCFDSIPKLIHYHQHNSAGMITRLRHPVSTKANKVPDSVSLGNGIWELKREEITLLKELGSGQFGVVQLGKWKGQYDVAVKMIKEGSMSEDEFFQEAQTMMKLSHPKLVKFYGVCSKEYPIYIVTEYISNGCLLNYLRSHGKGLEPSQLLEMCYDVCEGMAFLESHQFIHRDLAARNCLVDRDLCVKVSDFGMTRYVLDDQYVSSVGTKFPVKWSAPEVFHYFKYSSKSDVWAFGILMWEVFSLGKQPYDLYDNSQVVLKVSQGHRLYRPHLASDTIYQIMYSCWHELPEKRPTFQQLLSSIEPLREKDKH
In the case of B4, the Signal to Noise ratio with BRB1 Peptide (TR-FRET kinase assay; kinase 0.5 nM) is reported as 7.1.

B5: PDGFRβ (protein)
chain: QKKPRYEIRWKVIESVSSDGHEYIYVDPMQLPYDSTWELPRDQLVLGRTLGSGAFGQVVEATAHGLSHSQATMKVAVKMLKSTARSSEKQALMSELKIMSHLGPHLNVVNLLGACTKGGPIYIITEYCRYGDLVDYLHRNKHTFLQHHSDKRRPPSAELYSNALPVGLPLPSHVSLTGESDGGYMDMSKDESVDYVPMLDMKGDVKYADIESSNYMAPYDNYVPSAPERTCRATLINESPVLSYMDLVGFSYQVANGMEFLASKNCVHRDLAARNVLICEGKLVKICDFGLARDIMRDSNYISKGSTFLPLKWMAPESIFNSLYTTLSDVWSFGILLWEIFTLGGTPYPELPMNEQFYNAIKRGYRMAQPAHASDEIYEIMQKCWEEKFEIRPPFSQLVLLLERLLGEGYKKKYQQVDEEFLRSDHPAILRSQARLPGFHGLRSPLDTSSVLYTAVQPNEGDNDYIIPLPDPKPEVADEGPLEGSPSLASSTLNEVNTSSTISCDSPLEPQDEPEPEPQLELQVEPEPELEQLPDSGCPAPRAEAEDSFL
B5 gave a Signal to Noise ratio with BRB1 Peptide (TR-FRET kinase assay; kinase 0.25 nM) of 4.7.

B6: IRR (protein)
chain: YGKKRNRTLYASVNPEYFSASDMYVPDEWEVPREQISIIRELGQGSFGMVYEGLARGLEAGEESTPVALKTVNELASPRECIEFLKEASVMKAFKCHHVVRLLGVVSQGQPTLVIMELMTRGDLKSHLRSLRPEAENNPGLPQPALGEMIQMAGEIADGMAYLAANKFVHRDLAARNCMVSQDFTVKIGDFGMTRDVYETDYYRKGGKGLLPVRWMAPESLKDGIFTTHSDVWSFGVVLWEIVTLAEQPYQGLSNEQVLKFVMDGGVLEELEGCPLQLQELMSRCWQPNPRLRPSFTHILDSIQEELRPSFRLLSFYYSPECRGARGSLPTTDAEPDSSPTPRDCSPQNGGPGH
Work on B6 yielded a Signal to Noise ratio with BRB1 Peptide (TR-FRET kinase assay; kinase 0.5 nM) of 19.2.

B7: HER4 (ERBB4) (protein)
chain: RRKSIKKKRALRRFLETELVEPLTPSGTAPNQAQLRILKETELKRVKVLGSGAFGTVYKGIWVPEGETVKIPVAIKILNETTGPKANVEFMDEALIMASMDHPHLVRLLGVCLSPTIQLVTQLMPHGCLLEYVHEHKDNIGSQLLLNWCVQIAKGMMYLEERRLVHRDLAARNVLVKSPNHVKITDFGLARLLEGDEKEYNADGGKMPIKWMALECIHYRKFTHQSDVWSYGVTIWELMTFGGKPYDGIPTREIPDLLEKGERLPQPPICTIDVYMVMVKCWMIDADSRPKFKELAAEFSRMARDPQRYLVIQGDDRMKLPSPNDSKFFQNLLDEEDLEDMMDAEEYLVPQAFNIPPPIYTSRARIDSNRSEIGHSPPPAYTPMSGNQFVYRDGGFAAEQGVSVPYRAPTSTIPEAPVAQGATAEIFDDSCCNGTLRKPVAPHVQEDSSTQRYSADPTVFAPERSPRGELDEEGYMTPMRDKPKQEYLNPVEENPFVSRRKNGDLQALDNPEYHNASNGPPKAEDEYVNEPLYLNTFANTLGKAEYLKNNILSMPEKAKKAFDNPDYWNHSLPPRSTLQHPDYLQEYSTKYFYKQNGRIRPIVAENPEYLSEFSLKPGTVLPPPPYRHRNTVV
With B7 the Signal to Noise ratio with BRB1 Peptide (TR-FRET kinase assay; kinase 0.1 nM) was 3.1.

B8: IGF1R (protein)
chain: RKRNNSRLGNGVLYASVNPEYFSAADVYVPDEWEVAREKITMSRELGQGSFGMVYEGVAKGVVKDEPETRVAIKTVNEAASMRERIEFLNEASVMKEFNCHHVVRLLGVVSQGQPTLVIMELMTRGDLKSYLRSLRPEMENNPVLAPPSLSKMIQMAGEIADGMAYLNANKFVHRDLAARNCMVAEDFTVKIGDFGMTRDIYETDYYRKGGKGLLPVRWMSPESLKDGVFTTYSDVWSFGVVLWEIATLAEQPYQGLSNEQVLRFVMEGGLLDKPDNCPDMLFELMRMCWQYNPKMRPSFLEIISSIKEEMEPGFREVSFYYSEENKLPEPEELDLEPENMESVPLDPSASSSSLPLPDRHSGHKAENGPGPGVLVLRASFDERQPYAHMNGGRKNERALPLPQSSTC
Work on B8 yielded a Signal to Noise ratio with BRB1 Peptide (TR-FRET kinase assay; kinase 0.25 nM) of 25.1.

B9: LTK (protein)
chain: KQKKWQGLQEMRLPSPELELSKLRTSAIRTAPNPYYCQVGLGPAQSWPLPPGVTEVSPANVTLLRALGHGAFGEVYEGLVIGLPGDSSPLQVAIKTLPELCSPQDELDFLMEALIISKFRHQNIVRCVGLSLRATPRLILLELMSGGDMKSFLRHSRPHLGQPSPLVMRDLLQLAQDIAQGCHYLEENHFIHRDIAARNCLLSCAGPSRVAKIGDFGMARDIYRASYYRRGDRALLPVKWMPPEAFLEGIFTSKTDSWSFGVLLWEIFSLGYMPYPGRTNQEVLDFVVGGGRMDPPRGCPGPVYRIMTQCWQHEPELRPSFASILERLQYCTQDPDVLNSLLPMELGPTPEEEGTSGLGNRSLECLRPPQPQELSPEKLKSWGGSPLGPWLSSGLKPLKSRGLQPQNLWNPTYRS
Protein B9 has a Signal to Noise Ratio with BRB1 Peptide (TR-FRET kinase assay; kinase 1 nM) of 13.7.

B10: PDGFRa (protein)
chain: KQKPRYEIRWRVIESISPDGHEYIYVDPMQLPYDSRWEFPRDGLVLGRVLGSGAFGKVVEGTAYGLSRSQPVMKVAVKMLKPTARSSEKQALMSELKIMTHLGPHLNIVNLLGACTKSGPIYIITEYCFYGDLVNYLHKNRDSFLSHHPEKPKKELDIFGLNPADESTRSYVILSFENNGDYMDMKQADTTQYVPMLERKEVSKYSDIQRSLYDRPASYKKKSMLDSEVKNLLSDDNSEGLTLLDLLSFTYQVARGMEFLASKNCVHRDLAARNVLLAQGKIVKICDFGLARDIMHDSNYVSKGSTFLPVKWMAPESIFDNLYTTLSDVWSYGILLWEIFSLGGTPYPGMMVDSTFYNKIKSGYRMAKPDHATSEVYEIMVKCWNSEPEKRPSFYHLSEIVENLLPGQYKKSYEKIHLDFLKSDHPAVARMRVDSDNAYIGVTYKNEEDKLKDWEGGLDEQRLSADSGYIIPLPDIDPVPEEEDLGKRNRHSSQTSEESAIETGSSSSTFIKREDETIEDIDMMDDIGIDSSDLVEDSFL
For B10, the Signal to Noise ratio with BRB1 Peptide (TR-FRET kinase assay; kinase 0.5 nM) was 8.

B11: MER (protein)
chain: KRVQETKFGNAFTEEDSELVVNYIAKKSFCRRAIELTLHSLGVSEELQNKLEDVVIDRNLLILGKILGEGEFGSVMEGNLKQEDGTSLKVAVKTMKLDNSSQREIEEFLSEAACMKDFSHPNVIRLLGVCIEMSSQGIPKPMVILPFMKYGDLHTYLLYSRLETGPKHIPLQTLLKFMVDIALGMEYLSNRNFLHRDLAARNCMLRDDMTVCVADFGLSKKIYSGDYYRQGRIAKMPVKWIAIESLADRVYTSKSDVWAFGVTMWEIATRGMTPYPGVQNHEMYDYLLHGHRLKQPEDCLDELYEIMYSCWRTDPLDRPTFSVLRLQLEKLLESLPDVRNQADVIYVNTQLLESSEGLAQGSTLAPLDLNIDPDSIIASCTPRAAISVVTAEVHDSKPHEGRYILNGGSEEWEDLTSAPSAAVTAEKNSVLPGERLVRNGVSWSHSSMLPLGSSLPDELLFADDSSEGSEVLM
B11 gave a Signal to Noise ratio with BRB1 Peptide (TR-FRET kinase assay; kinase 0.25 nM) of 12.9.
